Source: article PMC5852159, “Hydrogen peroxide positively regulates brassinosteroid signaling through oxidation of the BRASSINAZOLE-RESISTANT1 transcription factor” (Nature Communications, 2018)

Molecular target: T1, MBP-BZR1 (maltose-binding protein-BRASSINAZOLE-RESISTANT1 fusion) (Arabidopsis thaliana, UniProt Q8S307 1-336)
T1 construct: BRASSINAZOLE-RESISTANT1 (BZR1), Arabidopsis thaliana; full length cDNA without stop codon, recombined into pMAL2CGW (N-MBP); In part of the pull-downs 1 mM H2O2 stood in the buffer, which oxidises BZR1 (mainly at Cys-63); also called recombinant BZR1; source: E. coli, purified (amylose resin); not shown: MBP, N-terminal, kept
T1 sequence (looked up): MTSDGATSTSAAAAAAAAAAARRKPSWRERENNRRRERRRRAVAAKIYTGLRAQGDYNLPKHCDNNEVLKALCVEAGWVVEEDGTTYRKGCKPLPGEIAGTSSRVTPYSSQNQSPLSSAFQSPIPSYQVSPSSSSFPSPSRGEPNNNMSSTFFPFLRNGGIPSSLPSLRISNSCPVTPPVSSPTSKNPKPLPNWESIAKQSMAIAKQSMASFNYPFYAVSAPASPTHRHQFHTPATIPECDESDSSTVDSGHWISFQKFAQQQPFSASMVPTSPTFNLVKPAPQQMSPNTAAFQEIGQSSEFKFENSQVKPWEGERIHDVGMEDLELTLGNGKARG
Assay: pull-down; glutathione beads with 1 µg GST fusion incubated with 1 µg MBP or MBP fusion; 20 mM Tris-HCl pH 7.5, 100 mM NaCl, 1 mM EDTA, with or without 1 mM H2O2, 4 °C, 1 h; washed with 300 mM NaCl, 0.1% Nonidet P-40; blots with anti-MBP and anti-GST
Conditions: both partners purified

binding result: binds
B1: GST-TRXh5 (enzyme, Arabidopsis thaliana, UniProt Q39241 1-118, looked up)
chain: MAGEGEVIACHTLEVWNEKVKDANESKKLIVIDFTASWCPPCRFIAPVFAEMAKKFTNVVFFKIDVDELQAVAQEFKVEAMPTFVFMKEGNIIDRVVGAAKDEINEKLMKHGGLVASA
notes: thioredoxin h5 (TRXh5), Arabidopsis thaliana; full length cDNA without stop codon, recombined into pDEST15 (N-GST); also called thioredoxin TRXh5; source: bacteria, purified (glutathione beads); not shown: GST, N-terminal, kept
